Test results: article doi:10.1101/630269

Biological target: Dendritic cell-specific ICAM-3 grabbing non-integrin (DC-SIGN, CD209) (human) (UniProt Q9NNX6)
Assay: virion-cell binding assay

Chain of UniProt Q9NNX6 (Q9NNX6 whole entry): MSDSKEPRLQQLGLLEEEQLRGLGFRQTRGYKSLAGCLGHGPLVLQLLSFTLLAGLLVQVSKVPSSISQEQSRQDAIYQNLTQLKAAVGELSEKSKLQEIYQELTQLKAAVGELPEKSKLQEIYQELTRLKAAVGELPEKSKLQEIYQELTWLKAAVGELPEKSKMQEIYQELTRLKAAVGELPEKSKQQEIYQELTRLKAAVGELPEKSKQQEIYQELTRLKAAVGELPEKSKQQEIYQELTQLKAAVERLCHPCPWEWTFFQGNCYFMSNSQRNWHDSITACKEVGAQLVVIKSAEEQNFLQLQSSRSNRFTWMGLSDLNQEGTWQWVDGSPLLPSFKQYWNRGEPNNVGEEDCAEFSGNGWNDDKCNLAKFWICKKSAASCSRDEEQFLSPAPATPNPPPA

## EBOV Makona glycoprotein GP-V82 (natural protein)
  fold binding relative to GP-A82: 2 fold
